# Laboratory results published in article PMC3192265 (Molecular microbiology, 2011).
# T1: B. subtilis DnaA (no tag) (B. subtilis, UniProt P05648 1-446)
# T1 sequence (looked up): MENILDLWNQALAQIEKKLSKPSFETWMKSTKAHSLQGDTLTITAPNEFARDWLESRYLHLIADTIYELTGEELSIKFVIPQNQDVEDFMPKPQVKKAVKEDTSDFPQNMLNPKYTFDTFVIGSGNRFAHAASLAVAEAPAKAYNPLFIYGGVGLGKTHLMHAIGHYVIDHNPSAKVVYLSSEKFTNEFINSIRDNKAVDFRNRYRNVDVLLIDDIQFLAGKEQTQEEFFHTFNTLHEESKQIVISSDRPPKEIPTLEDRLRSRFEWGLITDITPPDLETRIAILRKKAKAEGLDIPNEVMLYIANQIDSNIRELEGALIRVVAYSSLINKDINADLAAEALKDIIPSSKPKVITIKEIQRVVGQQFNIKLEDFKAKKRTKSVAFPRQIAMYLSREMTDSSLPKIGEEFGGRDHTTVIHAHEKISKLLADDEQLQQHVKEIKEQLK
# B1: his-YabA (recombinant YabA with a hexa-histidine tag at its N-terminus) (natural protein)
# chain: not shown
# Target: T1, B. subtilis DnaA (no tag)
# Assay: native gel or EMSA
binder,measurement,value
B1,binding result,binds
